Test results as given in the supplement of paper PMC9112550, “Optimization of the antimicrobial peptide Bac7 by deep mutational scanning” (BMC Biology, 2022).

Tested on: Escherichia coli TOP10
Test: shrunken log2 fold change of peptide-encoding DNA abundance (4.5 h post-induction vs induction); higher = less antimicrobial activity (less host growth inhibition)
Conditions: time post-induction: 4.5 h; library: site-saturation at positions 5, 18, 19, 20
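Further: peptides expressed intracellularly from a pBAD plasmid library in pooled LB shake-flask culture, induced with 0.3% L-arabinose, DNA abundance read by NGS, three biological replicates, DESeq2 with apeglm shrinkage.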

| Sequence | shrunken log2 fold change |
| --- | --- |
| RRIRIRPPRLPRPRPRPFCLPRP | -0.739 |
| RRIRQRPPRLPRPRPRPKMLPRP | 0.0996 |
| RRIRDRPPRLPRPRPRPREIPRP | -0.00904 |
| RRIRDRPPRLPRPRPRPLRGPRP | 0.112 |
| RRIRPRPPRLPRPRPRPGFWPRP | 0.61 |
| RRIRERPPRLPRPRPRPHEVPRP | -0.0812 |
| RRIRMRPPRLPRPRPRPTFKPRP | 0.198 |
| RRIRQRPPRLPRPRPRPFMIPRP | 0.0993 |
| RRIRARPPRLPRPRPRPRSIPRP | -0.0101 |
| RRIRFRPPRLPRPRPRPFDYPRP | -0.111 |
| RRIRLRPPRLPRPRPRPPAAPRP | 0.771 |
| RRIRPRPPRLPRPRPRPNTIPRP | -0.553 |
| RRIRIRPPRLPRPRPRPSVYPRP | -0.277 |
| RRIRGRPPRLPRPRPRPALNPRP | 0.705 |
| RRIRARPPRLPRPRPRPIFSPRP | -0.00994 |
| RRIRGRPPRLPRPRPRPIMNPRP | 0.237 |
| RRIRSRPPRLPRPRPRPINPPRP | -0.447 |
| RRIRERPPRLPRPRPRPTRTPRP | 0.374 |
| RRIRYRPPRLPRPRPRPQGIPRP | -0.236 |
| RRIRLRPPRLPRPRPRPVMCPRP | 0.142 |
| RRIRQRPPRLPRPRPRPTTGPRP | 0.0143 |
| RRIRMRPPRLPRPRPRPHKRPRP | 0.126 |

| Sequence | shrunken log2 fold change |
| --- | --- |
| RRIRKRPPRLPRPRPRPFKAPRP | -0.111 |
| RRIRCRPPRLPRPRPRPIWVPRP | -0.0515 |
| RRIRHRPPRLPRPRPRPTHWPRP | 0.706 |
| RRIRNRPPRLPRPRPRPRPSPRP | 0.443 |
| RRIRKRPPRLPRPRPRPNMQPRP | 0.26 |
| RRIRARPPRLPRPRPRPSSCPRP | -0.0288 |
| RRIRQRPPRLPRPRPRPQWQPRP | 0.16 |
| RRIRARPPRLPRPRPRPMMMPRP | 0.246 |
| RRIRWRPPRLPRPRPRPWDNPRP | -0.00804 |
| RRIRPRPPRLPRPRPRPFTPPRP | -0.112 |
| RRIRKRPPRLPRPRPRPEYEPRP | 0.0698 |
| RRIRIRPPRLPRPRPRPQKDPRP | -0.421 |
| RRIRIRPPRLPRPRPRPGHDPRP | 0.144 |
| RRIRPRPPRLPRPRPRPECRPRP | 0.56 |
| RRIRQRPPRLPRPRPRPFNKPRP | -0.0963 |
| RRIRVRPPRLPRPRPRPDGSPRP | -0.0225 |
| RRIRCRPPRLPRPRPRPGHMPRP | -0.0628 |
| RRIRKRPPRLPRPRPRPLFFPRP | 0.147 |
| RRIRGRPPRLPRPRPRPLMVPRP | 0.885 |
| RRIRLRPPRLPRPRPRPFITPRP | -0.35 |
| RRIRPRPPRLPRPRPRPTGVPRP | 0.0313 |
| RRIRNRPPRLPRPRPRPRRYPRP | 0.0725 |

| Sequence | shrunken log2 fold change |
| --- | --- |
| RRIRTRPPRLPRPRPRPHWVPRP | 0.381 |
| RRIRNRPPRLPRPRPRPFLGPRP | -0.00194 |
| RRIRLRPPRLPRPRPRPENRPRP | 0.097 |
| RRIRDRPPRLPRPRPRPTICPRP | -0.232 |
| RRIRQRPPRLPRPRPRPIMKPRP | -0.0798 |
| RRIRWRPPRLPRPRPRPRSHPRP | 0.273 |
| RRIRCRPPRLPRPRPRPFFAPRP | 0.216 |
| RRIRNRPPRLPRPRPRPKAIPRP | -0.0372 |
| RRIRSRPPRLPRPRPRPALVPRP | 0.398 |
| RRIRQRPPRLPRPRPRPQHDPRP | -0.477 |
| RRIRQRPPRLPRPRPRPPNMPRP | -0.089 |
| RRIRHRPPRLPRPRPRPVMWPRP | 0.21 |
| RRIRMRPPRLPRPRPRPCVGPRP | 0.584 |
| RRIRSRPPRLPRPRPRPALGPRP | 0.505 |
| RRIRVRPPRLPRPRPRPLNYPRP | -0.621 |
| RRIRARPPRLPRPRPRPRRWPRP | 0.739 |
| RRIRLRPPRLPRPRPRPEGDPRP | 0.0662 |
| RRIRSRPPRLPRPRPRPMWGPRP | -0.0451 |
| RRIRTRPPRLPRPRPRPCCVPRP | -0.363 |
| RRIRERPPRLPRPRPRPCCLPRP | -0.57 |
| RRIRIRPPRLPRPRPRPCHDPRP | -0.223 |
| RRIRNRPPRLPRPRPRPGSKPRP | 0.00175 |

| Sequence | shrunken log2 fold change |
| --- | --- |
| RRIRNRPPRLPRPRPRPDFDPRP | -0.0771 |
| RRIRFRPPRLPRPRPRPDSCPRP | -0.011 |
| RRIRYRPPRLPRPRPRPEMSPRP | -0.343 |
| RRIRPRPPRLPRPRPRPQHIPRP | -0.648 |
| RRIRVRPPRLPRPRPRPDAQPRP | -0.136 |
| RRIRIRPPRLPRPRPRPSACPRP | -0.561 |
| RRIRSRPPRLPRPRPRPCLMPRP | -0.135 |
| RRIRNRPPRLPRPRPRPAEYPRP | 0.0714 |
| RRIRMRPPRLPRPRPRPMPYPRP | 0.018 |
| RRIRLRPPRLPRPRPRPRFSPRP | 0.0406 |
| RRIRIRPPRLPRPRPRPQACPRP | 0.126 |
| RRIRRRPPRLPRPRPRPGTLPRP | -0.0513 |
| RRIRERPPRLPRPRPRPQEGPRP | 0.0271 |
| RRIRLRPPRLPRPRPRPLCSPRP | -0.223 |
| RRIRDRPPRLPRPRPRPPFMPRP | 0.042 |
| RRIRRRPPRLPRPRPRPEHFPRP | 0.301 |
| RRIRPRPPRLPRPRPRPLYRPRP | -0.181 |
| RRIRFRPPRLPRPRPRPKQTPRP | 1.01 |
| RRIRFRPPRLPRPRPRPDKVPRP | -0.281 |
| RRIRPRPPRLPRPRPRPPGFPRP | 0.847 |
| RRIRYRPPRLPRPRPRPIGTPRP | -0.1 |
| RRIRTRPPRLPRPRPRPNCHPRP | -0.341 |

| Sequence | shrunken log2 fold change |
| --- | --- |
| RRIRQRPPRLPRPRPRPCWWPRP | 0.0676 |
| RRIRSRPPRLPRPRPRPLMHPRP | -0.142 |
| RRIRMRPPRLPRPRPRPPWLPRP | 0.568 |
| RRIRFRPPRLPRPRPRPQDRPRP | -0.591 |
| RRIRSRPPRLPRPRPRPMAMPRP | 0.0808 |
| RRIRDRPPRLPRPRPRPPVFPRP | 1.59 |
| RRIRTRPPRLPRPRPRPEGNPRP | -0.311 |
| RRIRIRPPRLPRPRPRPINRPRP | -0.312 |
| RRIRWRPPRLPRPRPRPNMIPRP | -0.114 |
| RRIRFRPPRLPRPRPRPADIPRP | 0.131 |
| RRIRWRPPRLPRPRPRPTQWPRP | 0.346 |
| RRIRNRPPRLPRPRPRPWWDPRP | -0.00674 |
| RRIRCRPPRLPRPRPRPVSIPRP | -0.549 |
| RRIRDRPPRLPRPRPRPGFGPRP | 0.264 |
| RRIRKRPPRLPRPRPRPMPCPRP | -0.0242 |
| RRIRIRPPRLPRPRPRPPIWPRP | -0.00949 |
| RRIRYRPPRLPRPRPRPMMTPRP | -0.111 |
| RRIRSRPPRLPRPRPRPAPCPRP | 0.308 |
| RRIRHRPPRLPRPRPRPNREPRP | -0.107 |
| RRIRFRPPRLPRPRPRPHAGPRP | -0.024 |
| RRIRPRPPRLPRPRPRPTHNPRP | 0.199 |
